Measured values published in the supplement of paper PMC9170038.

Assays:
MS2 coat protein [1] = test: apparent KD of MS2 coat protein, switch ON state; designed switch direction (-1 OFF switch, 1 ON switch): -1; higher = weaker reporter binding; settings: FMN input: 0 or 200 uM; Eterna round: R93 (includes R88 designs)
Outline: (§1)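 Titrations with SNAP-549-labelled MS2 coat protein ran in twofold steps from 0.7 or 1.5 nM to 3 µM, each step taking 0.8–1.5 h at the start and 10–20 min toward the end. The targets were designed RNA switches transcribed on-chip from Illumina sequencing clusters, held in 100 mM Tris-HCl pH 7.5, 80 mM KCl, 4 mM MgCl2, without or with constant ligand. Apparent KD was taken per design as the median of normalised cluster binding-curve fits.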

MS2 coat protein [2] = test: apparent KD of MS2 coat protein, switch OFF state (with FMN for OFF switches, without FMN for ON switches); designed switch direction (-1 OFF switch, 1 ON switch): -1; higher = weaker reporter binding; settings: FMN input: 0 or 200 uM; Eterna round: R93 (includes R88 designs)
Outline: as §1

Sequence | apparent KD of MS2 coat protein (MS2 coat protein [1]) [nM] | apparent KD of MS2 coat protein (MS2 coat protein [2]) [nM]
AAAACUGGAGGAUAUACAUGAGGAUCACCCAUGUGUGGAUGAGCUGUGUCGGCGUCAGGUAGAAGGCCACAAAA [Gilly Gone Silly 35 - Jieux - Exclusion 3] | 36.3 | 43.1
AAAACUGGAGGAUAUACAUGAGGAUCACCCAUGUGUGGGUAUACUGUGUCGGCGUCAGGUAGAAGGCCAAAAAA [Gilly Gone Silly 29 - Jieux - Exclusion 3] | 146 | 151
AAAACUGGAGGAUAUACAUGAGGAUCACCCAUGUGUGGGUGGGCUGUGUCGGCGUCAGGUAGAAGGCCACAAAA [Gilly Gone Silly 33 - Jieux - Exclusion 3] | 201 | 108
AAAAGGUGAGGAUAUAGGAAAAUAAAAUAAAAUAAAAUAAACUAGAAGGCACAUGAGGAUCACCCAUGUAAUAA [LROPPY Exclusion 4 - v03_deltaG=3.54 break up the As] | 25.1 | 17
AAAAGGUGAGGAUAUAUGAAAAAAAAAAAAAAAAAAAAAAAAUAGAAGGCACAUGAGGAUCACCCAUGUAAAAA [LROPPY Exclusion 4 - v04_ on a whim] | 36.9 | 27.2
AAAAGUGGAGGAUAUACAUGAGGAUCACCCAUGUGUAAAAAUAAAUACACAAAAGAAAGUAGAAGGCCACAAAG [Mat - Exclusion 3 - Mayanna mod - D117] | 32.2 | 128
AAAAUGUCAGGAUAUGUAGCAAAAGGUGAUCAAAAAAAGCUACAGAAGGGACAUGAGGAUCACCCAUGUAAAAA [Ex4: 935] | 1020 | 2870
AAACCACAUGAGGAUCACCCAUGUGAGGAUAUGAACGAAAAUAAAUAAAAAUAAAAGUUCAGAAGGCACAAAAA [66%, Wbt, 12] | 21.3 | 23.6
AAACUACUAGGAUAUACAACGGUGUCCUAACUACUAAGAAGACAUGAGGAUCACCCAUGUAGAAGGAGUAGUGA [Sosogeen] | 50.3 | 37.8
AAAGAUGCAGGAUAUACAUGAGGAUCACCCAUGUUAGACCUGAAAAGGGAAAAAGAAAGUAGAAGGGCAUAAAA [Ex 3 May 32] | 13.4 | 17
AAAGAUGGAGGAUAUACAUGAGGAUCACCCAUGUAGAAAAAAAAUUGGGAAAAAGAAAGUAGAAGGCCAAAAAA [Ex 3 May 43] | 38.7 | 72.9
AAAGGACGAGGAUAUACAUGAGGAUCACCCAUGUAAAAAACGUAAUAAAAUAACUUAUGUAGAAGGCGUCCAAA [Mat - Exclusion 3 - Eli mod - D98] | 26.3 | 214
AAAGGACGAGGAUAUACAUGAGGAUCACCCAUGUAAAAAGCAUAAUAAAAGAACUUAUGUAGAAGGCGUCCAAA [69%, Moding Meechl, 5] | 41 | 189
AAAGUGUGAGGAUAUGUCAAAGGUCACGAAAGUGACAAAGGACAGAAGGUACAUGAGGAUCACCCAUGUAAAAA [65% + different segment] | 39.8 | 32
AAAUAGCAAGGAUAUACAUGAGGAUCACCCAUGUGACCCAGGUAUGGCAUAGACUAGAGUAGAAGGUGCAAAUA [Mod 5 of Ex 3 Tesla 8 - Jieux - Exclusion 3] | 88.1 | 114
AAAUGACAUGAGGAUCACCCAUGUCAGGAUAUGACUUGAAAAAAAAAAAAAAAACAUGUCAGAAGGGACAUGAA [Design 48: Sub-opt E] | 17.2 | 16.8
AAAUGCUGAGGAUAUACAUGAGGAUCACCCAUGUAAAAUAAAUAAUGGAUGUAAACGUGUAGAAGGCAGCAUAA [Exclusion 3.14b (FMN+ favored )] | 79.6 | 23

Sequence | apparent KD of MS2 coat protein (MS2 coat protein [1]) [nM] | apparent KD of MS2 coat protein (MS2 coat protein [2]) [nM]
AAAUUAGGAGGAUAUACAUGAGGAUCACCCAUGUGACGAUGUUACUGCAUGAAGCCAAGUAGAAGGUCUAAGAA [Lacelaatdi] | 24.7 | 49.5
AAAUUGUCAGGAUAUCGUAUAACUGGGAAAACCAGGAGAUACGAGAAGGGACAUGAGGAUCACCCAUGUAAAAC [May 94] | 51.6 | 65.8
AACAAACAUGAGGAUCACCCAUGUAAGGAUAUACGAAACAAACAAACAAACAAACAAAGUAGAAGGUACAGGAA [Exclusive 1] | 17.3 | 16.3
AACAAACAUGAGGAUCACCCAUGUAAGGAUAUGCGACAAAAACAAAAAACAAAAAAAAGCAGAAGGUACAACAA [Amethyst 100] | 23.4 | 30.4
AACAAAUGAGGAUAUACAAACAAAAAAAACAAACAAAACAAACAUGAGGAUCACCCAUGUAGAAGGCAUAAACA [JR_Exc002_Sub901] | 24.8 | 24.5
AACAAGACAGGAUAUACAUGAGGAUCACCCAUGUCACAACAAAGCAGCGCAACACAAAGUAGAAGGGUCAUGGA [Ruby 11] | 81.2 | 82.6
AACAGACAUGAGGAUCACCCAUGUGAGGAUAUCCAAAACGAUAAAACAAGAAUGACAGGGAGAAGGCACAGCAA [JR_Exc001_Sub008] | 65.2 | 52.2
AACAGACAUGAGGAUCACCCAUGUGAGGAUAUCCCAAUCGAUAGAACUAGAAUGACAAGGAGAAGGCACAGCAA [JR_Exc001_Sub005] | 70.1 | 70.1
AACAGGAGAGGAUAUACAUGAGGAUCACCCAUGUAGGAAACAAGCAGAGUACCAAAAAGUAGAAGGCUCAUGGA [Ruby 32] | 28.1 | 43.1
AACAGGUUAGGAUAUAUGUAACAAAUAAAAAAAAUAUAAACAUAGAAGGAACAUGAGGAUCACCCAUGUUAACA [May 29] | 29.7 | 19.4
AACAGUACAGGAUAUACAUGAGGAUCACCCAUGUAAAGGGAAUAAAACUAAAAUAAAAGUAGAAGGGUACUGGA [Moding Maslow revisited (73) 20] | 50.9 | 92.6
AACAGUACAGGAUAUACAUGAGGAUCACCCAUGUGAAAAUUAAGUGGCGUACCACAAAGUAGAAGGGUACUGAA [Moding Maslow Revisited (73) 26] | 27.9 | 125
AACAGUACAGGAUAUACAUGAGGAUCACCCAUGUGACAGAAAUAAAACAAAAAUAAAAGUAGAAGGGUACUGGA [Ruby 42] | 31 | 61.2
AACAGUACAGGAUAUACAUGAGGAUCACCCAUGUGGGAAAAAAGAUCGAGAGAUCCAUGUAGAAGGGUACUGGA [JL In the Red 06] | 85.5 | 25.6
AACAUACAUGAGGAUCACCCAUGUCAGGAUAUGCCGGGUUAGAACCAACUAAAAAAACGUAGAAGGGACAAAAA [Bilbo Confounded 5 - Jieux - Exclusion 1] | 63.3 | 46.7
AACCGACAUGAGGAUCACCCAUGUAAGGAUAUGCAUCCUUCGGCCCGGACCAGAGGAAGCAGAAGGUGCAGGGA [Iscegebia] | 43.1 | 41.2
